These results are taken from the supplement of paper PMC12042874.

± gives the uncertainty stated by the source.

A short description of the data set: amyloid nucleation score (Sup35N fusion, yeast selection) (log enrichment); library NNK3; higher = more nucleation; inactive = no reads after selection. The gist of the method: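 Growth for 7 days at 30°C on medium lacking adenine and uracil followed a 24-hour induction with 100 μM copper sulfate of psi-negative yeast expressing peptides of 20 random codons fused to Sup35N. Input and output plasmid inserts were sequenced with Illumina, and sequences with under 100 input reads were excluded. Nucleation score is the DiMSum log enrichment of output over input reads, centred on the mode score of non-aggregating sequences.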
As to TGCPWIRTVNPVVPWVCEHR, the amyloid nucleation score result is “inactive”.

For the substance TGCSSF, the amyloid nucleation score result was “inactive”.

Take TGKLNNFFNTFRYFYLLADY: the amyloid nucleation score entry was “inactive”.

In the case of TGLVMNKLHLMCDMYGIISL, the amyloid nucleation score entry is “inactive”.

Turning to TGPFGINLRGR, the amyloid nucleation score entry was “inactive”.

Turning to TGTSSKYVGEVLHSLVVWFA, the amyloid nucleation score is -0.575 ± 1.5.

In the case of TGVDILIPFFSPSGT, the amyloid nucleation score result was “inactive”.

For the substance TGYWRIFSCSCLIVCVRLSV, the amyloid nucleation score entry was “inactive”.

Consider THGIMLGFEECLGVYTFMCG, for which the amyloid nucleation score result is “inactive”.

THGNMCYEWIPKVPTIISVG: the amyloid nucleation score entry is “inactive”.

As for THHRPWWYHSEVGVRCMNEV, the amyloid nucleation score turned out to be 0.049 ± 0.96.

Turning to THLIIHCLCLFERVFITHVA, the amyloid nucleation score entry is “inactive”.

Consider THVSSGYRYEEILWWHSRGW, for which the amyloid nucleation score result is “inactive”.

As for TIAHYTVP, the amyloid nucleation score entry is “inactive”.

Substance TICQADSRSSFQGLDCRRVR displayed an amyloid nucleation score of -1.01 ± 2.5.

Regarding TICYGD, the amyloid nucleation score entry was “inactive”.

As for TIESNCVDDLSIGGAGPNLR, the amyloid nucleation score result is “inactive”.

TIFGCRSSQCSMFVLVFDFY registered an amyloid nucleation score of 1.51 ± 0.12.

TIFRSNDLRQYFWMA returned an amyloid nucleation score of 1.63 ± 0.071.

In turn, TIHIHFVGHDVCNRVVGVHH displayed an amyloid nucleation score of 1.24 ± 0.18.

As for TIISCFREKIGLSRM, the amyloid nucleation score entry is “inactive”.

Take TKGKLLSKHLGFVRCRVHRS: the amyloid nucleation score result was “inactive”.

Turning to TKGLDILDGVCVGCLRCQVD, the amyloid nucleation score result was “inactive”.

Turning to TKLCQSLRHAQRGTRTTSFS, the amyloid nucleation score result is “inactive”.

As to TKLPNYFWGLKGYHLLALLR, the amyloid nucleation score entry is “inactive”.

TKWRLTP: the amyloid nucleation score entry was “inactive”.

As for TKYRPCYNIVYSMFED, the amyloid nucleation score entry was “inactive”.

TLAPKYFYFFVKDVFGTSYC displayed an amyloid nucleation score of 1.54 ± 0.093.

On to TLDHEWGFLSEKATVL, for which the amyloid nucleation score entry is “inactive”.

As to TLDVQGTCH, the amyloid nucleation score entry is “inactive”.

As for TLFVA, the amyloid nucleation score result was “inactive”.

In the case of TLGRNCLVQRSCMGRSSECD, the amyloid nucleation score entry was “inactive”.

TLISYFEG: the amyloid nucleation score entry was “inactive”.

As to TLLFFCLEQTFNWFIMIQ, the amyloid nucleation score entry is “inactive”.

Take TLLFY: the amyloid nucleation score result was “inactive”.

As for TLLHDSDVGMQLSGSQRFFS, the amyloid nucleation score result is “inactive”.

As to TLLLL, the amyloid nucleation score entry was “inactive”.

Regarding TLMGLESVSVYFSMGFLSVY, the amyloid nucleation score entry was “inactive”.

Take TLNGCR: the amyloid nucleation score entry is “inactive”.

Take TLNRLTKKHCFGNFWLYSAW: the amyloid nucleation score result is “inactive”.

Regarding TLSDQFDMISWVSK, the amyloid nucleation score entry was “inactive”.

For TLVPVCGGSAGLVSSRKAAT, the amyloid nucleation score entry is “inactive”.

As to TLWAEYTNLSEKEIDDYIDL, the amyloid nucleation score entry was “inactive”.

As for TLWFQPDFTHVRRWYGLGLR, the amyloid nucleation score entry is “inactive”.

Take TLYKSGGEFHYKGLALKSKC: the amyloid nucleation score entry is “inactive”.

In the case of TMLWYLDDSSSNIREKSHGM, the amyloid nucleation score result is “inactive”.

Take TMTRSLYSVVSFKRFNSCLV: the amyloid nucleation score entry was “inactive”.

As to TMWLLCELFVTC, the amyloid nucleation score entry is “inactive”.

As for TMYVCWSMFEAIWDINHNTS, the amyloid nucleation score was -0.26 ± 0.64.

For TNLLM, the amyloid nucleation score result was “inactive”.

As for TNNRKRLYYWFERVTSE, the amyloid nucleation score entry was “inactive”.

For the substance TNRIMNPVYDILWSGMGQPC, the amyloid nucleation score result is “inactive”.

Consider TNTFQSRNMFVNTALIYSP, for which the amyloid nucleation score entry is “inactive”.

As to TNTSFSNWRCTPDRGIM, the amyloid nucleation score result was “inactive”.

For TNVRIYCSWGVDAG, the amyloid nucleation score result is “inactive”.

Take TPHLSCNLRYG: the amyloid nucleation score result is “inactive”.

Take TPLTPSGRLGFLTK: the amyloid nucleation score is 0.7 ± 0.21.

As for TPNARSNPSNRPVSSTRARS, the amyloid nucleation score entry is “inactive”.

Turning to TPRKVVDNGGLIDFKVYRLL, the amyloid nucleation score entry was “inactive”.

For TPSVRRGVMGVSPELCAMVG, the amyloid nucleation score entry was “inactive”.

Consider TPYQYFFRNCWKMSYRRAKI, for which the amyloid nucleation score entry was “inactive”.

With TQGFLNKAGNVLSVIMDRIR, the amyloid nucleation score entry was “inactive”.

Turning to TQLFGGFPTEGQMMYPPRSS, the amyloid nucleation score entry was “inactive”.

As to TQRRFMYMAFNQYMSQSSSR, the amyloid nucleation score entry is “inactive”.

In the case of TQSFWIARYTQLVCPRLCQN, the amyloid nucleation score entry is “inactive”.

Turning to TRALT, the amyloid nucleation score entry is “inactive”.

Take TRERWTTVYLNKLFLLCYSD: the amyloid nucleation score result was “inactive”.

For TRICMCFEFVNTSY, the amyloid nucleation score result was “inactive”.

Take TRILVRTGYHLLFLEG: the amyloid nucleation score result is “inactive”.

As for TRKLIDYLFTVKQVLQSKEE, the amyloid nucleation score entry is “inactive”.

As for TRMEICCKGYKGNVPKFAVY, the amyloid nucleation score result was “inactive”.

Regarding TRMSVQLISFAKLTFFSACM, the amyloid nucleation score entry was “inactive”.

Turning to TRNSYCTFRGGIIFCL, the amyloid nucleation score amounted to 1.25 ± 0.09.

On to TRRGHHCQFLVSGSGIAL, for which the amyloid nucleation score result is “inactive”.

On to TRSCDRYRALYSLLFTTGSM, for which the amyloid nucleation score result was “inactive”.

Take TRWHDGKRVSWKSTPNMLSV: the amyloid nucleation score result was “inactive”.

As to TRYGNW, the amyloid nucleation score result is “inactive”.

Take TSAYGMSSWGFWS: the amyloid nucleation score result was “inactive”.

With TSESAIAVRWSVFSPWPLGF, the amyloid nucleation score was found to be 0.643 ± 0.15.

For TSGHLVLGGYLSNQVKSVFR, the amyloid nucleation score turned out to be 0.605 ± 0.24.

For TSKLVCPNGVMHLRDDRVGC, the amyloid nucleation score result is “inactive”.

For TSKREWLMRNYAHCTNFDGR, the amyloid nucleation score result is “inactive”.

For the substance TSKRSYVSTGYTNWFTFRI, the amyloid nucleation score result was “inactive”.

Consider TSKVGLACKTIYVERSFWYF, for which the amyloid nucleation score entry is “inactive”.

As to TSMSGYRTRNPMTVPHHCVV, the amyloid nucleation score entry is “inactive”.

With TSQQHPASVSKGYMLRDG, the amyloid nucleation score entry is “inactive”.

Consider TSQTLESQDLIFSGCHSGWL, for which the amyloid nucleation score entry is “inactive”.

As for TSQYRPERKLRVR, the amyloid nucleation score result was “inactive”.

On to TSSETNLAYCSAVRGGLRKQ, for which the amyloid nucleation score entry is “inactive”.

For TSVLSTGCYTRTVTNVNGSI, the amyloid nucleation score result was “inactive”.

With TSVSKFKPVLHYNRTGSHGF, the amyloid nucleation score entry was “inactive”.

For TTDCIESVRDG, the amyloid nucleation score was -0.659 ± 1.4.

For TTFATSCNMWYHRSILHS, the amyloid nucleation score result is “inactive”.

Take TTLQEDGYRDACGYMASVFW: the amyloid nucleation score entry was “inactive”.

On to TTMWFLWEVSGYCHKCN, for which the amyloid nucleation score entry is “inactive”.

In the case of TTQILAL, the amyloid nucleation score entry is “inactive”.

In the case of TTRKNLKSGLVVSL, the amyloid nucleation score result was “inactive”.

Turning to TTRYHF, the amyloid nucleation score entry is “inactive”.

As to TTSLSIGGLIFRLVL, the amyloid nucleation score result was “inactive”.

Consider TTTLDSQSNNMFGAS, for which the amyloid nucleation score entry is “inactive”.

As to TTTRIAMYWYEYMSGCASHY, the amyloid nucleation score result is “inactive”.

Substance TVDFLSLVCVVIFRGTDWRR yielded an amyloid nucleation score of -1.03 ± 1.1.

TVDMSKPGYIWFSSDRSRYW: the amyloid nucleation score entry was “inactive”.

Turning to TVGCHSGPELMFQSWNSRSL, the amyloid nucleation score result is “inactive”.

For TVIVCVTFLRGWVSSACGLS, the amyloid nucleation score was found to be 0.045 ± 0.8.

As to TVIWLYIFRSQMPPVNPMRL, the amyloid nucleation score entry was “inactive”.

With TVKMRKFRRGTFRDMDIYWR, the amyloid nucleation score result is “inactive”.

For TVKVYTWNY, the amyloid nucleation score was determined as 1.93 ± 0.09.

TVLITIIFTSRGVAVRKS had an amyloid nucleation score of -1.19 ± 1.9.

As to TVLSIIVFSYLLVCYHLVSV, the amyloid nucleation score result is “inactive”.

On to TVLSVGINDFPYRSAISCLR, for which the amyloid nucleation score entry is “inactive”.

Consider TVLVTMFKIEEQLTF, for which the amyloid nucleation score entry was “inactive”.

With TVNWLL, the amyloid nucleation score entry is “inactive”.

Consider TVPVVREVLRLRVLRIFGVG, for which the amyloid nucleation score result is “inactive”.

As for TVRKSRSRSTQDEAFNPGTH, the amyloid nucleation score was 0.111 ± 0.63.

Regarding TVSICSGVSRVWKHLHYMMV, the amyloid nucleation score result is “inactive”.

TVSLRCWARLSNTDFIRFNS: the amyloid nucleation score result was “inactive”.

Regarding TVTCANSCLCRLSRMSCVVL, the amyloid nucleation score result is “inactive”.

As for TVVKPNRLAYHSQLFCKAHT, the amyloid nucleation score entry was “inactive”.

For TVYELYVDLAVRRSAFAFLP, the amyloid nucleation score came out at 0.744 ± 0.15.

For the substance TWESGENLTLTWAAQMGRCG, the amyloid nucleation score result was “inactive”.

For TWFLTPLNTFIFLLVPLFGL, the amyloid nucleation score entry was “inactive”.

For TWILSMWRSCIPNL, the amyloid nucleation score result is “inactive”.

Consider TWLIY, for which the amyloid nucleation score result was “inactive”.

Take TWVCEG: the amyloid nucleation score entry was “inactive”.

In the case of TWVILCKNSWFMLI, the amyloid nucleation score result is “inactive”.

Turning to TWVVLG, the amyloid nucleation score entry was “inactive”.

In the case of TYENDLC, the amyloid nucleation score result is “inactive”.

With TYGNLFNNCDKIYRRQNRSL, the amyloid nucleation score entry is “inactive”.

In the case of TYISF, the amyloid nucleation score result is “inactive”.
